# Experimental data: the supplement of paper PMC12667976
# ± gives the standard error.
# B1: library; numbered along this chain (parent)
# chain: MATDAALRRLLRLHRTEIAVAVDSAFPLLHALADHDVVPEDKFQETLHLKEKEGCPQAFHALLSWLLTQDSTAILDFWRVLFKDYNLERYGRLQPILDSFPKDVDLSQPRKGRKPPAVPKALVPPPRLPTKRKASEEARAAAPAALTPRGTASPGSQLKAKPPKKPESSAEQQRLPLGNGIQTMSASVQRAVAMSSGDVPGARGAVEGILIQQVFESGGSKKCIQVGGEFYTPSKFEDSGSGKNKARSSSGPKPLVRAKGAQGAAPGGGEARLGQQGSVPAPLALPSDPQLHQKNEDECAVCRDGGELICCDGCPRAFHLACLSPPLREIPSGTWRCSSCLQATVQEVQPRAEEPRPQEPPVETPLPPGLRSAGEEVRGPPGEPLAGMDTTLVYKHLPAPPSAAPLPGLDSSALHPLLCVGPEGQQNLAPGARCGVCGDGTDVLRCTHCAAAFHWRCHFPAGTSRPGTGLRCRSCSGDVTPAPVEGVLAPSPARLAPGPAKDDTASHEPALHRDDLESLLSEHTFDGILQWAIQSMARPAAPFPS
# Variants of: B1
# Experiment: AIRE transcriptional activation functional score (insulin promoter-GFP; nonsense median 0, synonymous median 1) (normalised score); higher = higher AIRE activity (more reporter activation)
# Details: with insulin promoter-GFP reporter in HEK293
# Experimental: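 Deep mutational scan of full-length human AIRE (codon-optimized cDNA, DT-POPCode NNN libraries over three regions) integrated at a Bxb1 landing pad in HEK293 cells carrying an insulin core promoter-GFP reporter at a Flp-In site. Cells were sorted for the top 10% GFP about 14 days after transfection. Variant frequency log-ratios (select vs non-select, TileSeq) were rescaled so that the nonsense median is 0 and the synonymous median is 1, then averaged over biological replicates.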
row,Variant,AIRE transcriptional activation functional score
1,P115F,1.5 ± 0.58
2,P115G,0.828 ± 0.45
3,P115H,1.03 ± 0.71
4,P115I,0.466 ± 0.77
5,P115K,-0.166 ± 0.74
6,P115L,1.2 ± 0.48
7,P115M,0.979 ± 0.15
8,P115N,1.02 ± 0.11
9,P115Q,1.01 ± 0.35
10,P115R,0.784 ± 0.41
11,P115S,1.58 ± 0.71
12,P115T,0.525 ± 0.52
13,P115V,1.21 ± 0.51
14,P115W,0.278 ± 0.1
15,P115Y,0.917 ± 0.29
16,P116A,0.756 ± 0.5
17,P116C,1.36 ± 0.37
18,P116D,0.468 ± 0.33
19,P116E,0.895 ± 0.69
20,P116F,1.18 ± 0.075
21,P116G,0.577 ± 0.51
22,P116H,1.15 ± 0.41
23,P116I,1.36 ± 0.24
24,P116K,0.772 ± 0.26

row,Variant,AIRE transcriptional activation functional score
1,P116L,1.07 ± 0.43
2,P116M,1.1 ± 0.35
3,P116N,2.06 ± 0.3
4,P116Q,1.41 ± 0.49
5,P116R,0.38 ± 0.45
6,P116S,1.12 ± 0.27
7,P116T,0.481 ± 0.99
8,P116V,0.906 ± 0.43
9,P116W,1.13 ± 0.19
10,P116Y,1.17 ± 0.12
11,A117C,1.1 ± 0.64
12,A117D,0.179 ± 0.29
13,A117E,1.03 ± 0.14
14,A117F,1.04 ± 0.38
15,A117G,1.22 ± 0.26
16,A117H,1.22 ± 0.48
17,A117I,0.777 ± 0.28
18,A117K,0.457 ± 0.24
19,A117L,1.13 ± 0.4
20,A117M,0.838 ± 0.066
21,A117N,0.792 ± 0.33
22,A117P,0.913 ± 0.48
23,A117Q,1.44 ± 1
24,A117R,0.501 ± 0.51

row,Variant,AIRE transcriptional activation functional score
1,A117S,0.692 ± 0.59
2,A117T,1.16 ± 0.36
3,A117V,0.34 ± 0.65
4,A117W,1.4 ± 0.096
5,A117Y,1.76 ± 0.24
6,V118A,1.02 ± 0.72
7,V118C,1.25 ± 0.13
8,V118D,0.403 ± 0.48
9,V118E,1.08 ± 0.27
10,V118F,1.01 ± 0.24
11,V118G,0.911 ± 0.38
12,V118H,1.74 ± 0.26
13,V118I,1.01 ± 0.14
14,V118K,0.143 ± 0.23
15,V118L,0.953 ± 0.44
16,V118M,1.31 ± 0.18
17,V118N,0.783 ± 0.28
18,V118P,1.47 ± 0.62
19,V118Q,0.675 ± 0.51
20,V118R,0.372 ± 0.4
21,V118S,0.863 ± 0.49
22,V118T,0.667 ± 0.45
23,V118W,1.13 ± 0.21
24,V118Y,1.42 ± 0.34

row,Variant,AIRE transcriptional activation functional score
1,P119A,1.03 ± 0.56
2,P119C,1.04 ± 0.56
3,P119D,0.86 ± 0.28
4,P119E,1.37 ± 0.17
5,P119F,1.39 ± 0.14
6,P119G,0.741 ± 0.48
7,P119H,1.17 ± 0.41
8,P119I,1.52 ± 0.17
9,P119K,1.36 ± 0.051
10,P119L,0.904 ± 0.3
11,P119M,0.545 ± 0.12
12,P119N,1.04 ± 0.46
13,P119Q,1.02 ± 0.37
14,P119R,0.495 ± 0.34
15,P119S,0.765 ± 0.48
16,P119T,1.59 ± 0.55
17,P119V,0.878 ± 0.6
18,P119W,1.58 ± 0.045
19,P119Y,1.63 ± 0.1
20,K120A,0.814 ± 0.64
21,K120C,1.2 ± 0.21
22,K120D,0.677 ± 0.3
23,K120E,0.943 ± 0.27
24,K120F,0.998 ± 0.34

row,Variant,AIRE transcriptional activation functional score
1,K120G,1.12 ± 0.34
2,K120H,0.932 ± 0.7
3,K120I,1.2 ± 0.15
4,K120L,1.13 ± 0.29
5,K120M,1.31 ± 0.077
6,K120N,1.29 ± 0.21
7,K120P,1.21 ± 0.39
8,K120Q,0.232 ± 0.33
9,K120R,1.21 ± 0.41
10,K120S,1.21 ± 0.44
11,K120T,1.79 ± 0.48
12,K120V,1.01 ± 0.28
13,K120W,1.43 ± 0.041
14,K120Y,1.34 ± 0.37
15,A121C,1.3 ± 0.16
16,A121D,0.847 ± 0.36
17,A121E,1.35 ± 0.18
18,A121F,1.22 ± 0.13
19,A121G,1.4 ± 0.15
20,A121H,0.141 ± 0.31
21,A121I,0.906 ± 0.4
22,A121K,1.21 ± 0.12
23,A121L,1.09 ± 0.22
24,A121M,1.2 ± 0.16

row,Variant,AIRE transcriptional activation functional score
1,A121N,1.1 ± 0.17
2,A121P,0.967 ± 0.48
3,A121Q,0.141 ± 0.53
4,A121R,0.922 ± 0.42
5,A121S,1.28 ± 0.72
6,A121T,0.322 ± 0.49
7,A121V,0.67 ± 0.31
8,A121W,1.54 ± 0.14
9,A121Y,1.59 ± 0.18
10,L122A,0.747 ± 0.24
11,L122C,1.17 ± 0.21
12,L122D,1.44 ± 0.14
13,L122E,0.827 ± 0.24
14,L122F,1.32 ± 0.15
15,L122G,1.29 ± 0.35
16,L122H,0.431 ± 0.75
17,L122I,0.612 ± 0.24
18,L122K,0.401 ± 0.17
19,L122M,1.1 ± 0.05
20,L122N,0.335 ± 0.67
21,L122P,0.586 ± 0.2
22,L122Q,0.272 ± 0.36
23,L122R,0.83 ± 0.43
24,L122S,1.44 ± 0.47

row,Variant,AIRE transcriptional activation functional score
1,L122T,0.686 ± 0.11
2,L122V,0.859 ± 0.41
3,L122W,0.871 ± 0.048
4,L122Y,1.45 ± 0.31
5,V123A,0.886 ± 0.47
6,V123C,1.27 ± 0.17
7,V123D,1.11 ± 0.33
8,V123E,0.862 ± 0.25
9,V123F,1.33 ± 0.095
10,V123G,1.3 ± 0.27
11,V123H,1.19 ± 0.59
12,V123I,1.17 ± 0.21
13,V123K,1.26 ± 0.2
14,V123L,1.28 ± 0.27
15,V123M,1.72 ± 0.061
16,V123N,1.03 ± 0.1
17,V123P,0.742 ± 0.58
18,V123Q,1.31 ± 0.14
19,V123R,0.872 ± 0.33
20,V123S,0.751 ± 0.44
21,V123T,0.905 ± 0.51
22,V123Y,1.43 ± 0.12
23,P124A,0.614 ± 0.46
